Reference: article PMC13544220, “Glycemic and bodyweight effects of GIPR coding variation reflect differences in surface expression and intrinsic functional impairment” (Science Advances, 2026)

How the values were obtained:
Format in all cases: cell-based, human
[1] = test system: wild-type and variant SNAP-GIPR; assay: Single-concentration GIP cAMP response by HTRF in INS-1 cells; details: Fig S3E, mean
Method: (§1) All variants were tested in parallel on each occasion to control for transfection efficiency differences between experiments.

[2] = test system: wild-type and variant SNAP-GIPR; assay: Surface SNAP-GIPR expression (SNAP-tag labelling) in AD293 cells; details: for AD293 Surface: Fig S3E, mean; for Surface SNAP-GIPR expression: sheet Fig 1C;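 on all read-outs here: scaled to the experimental average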
How it was run: (§2)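 Read-out: whole-cell fluorescence of surface-only SNAP label (Alexa Fluor 647, 500 nM, 10 min, RT), wide-field 20X, several FOVs per well. Flat-field corrected, phase-contrast masked, nontransfected-well signal subtracted; normalized to experiment mean or wild-type.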

[3] = test system: wild-type and variant SNAP-GIPR; assay: cADDis cAMP imaging in AD293 cells, ensemble, expression-matched and per decile; details: Fig S3F, cADDis, mean;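 further: Ensemble cells as % of IBMX/FSK response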
How it was run: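 Surface GIPR and cAMP are measured in individual AD293 cells coexpressing SNAP-tagged receptor and the green cADDis biosensor, imaged live at 37°C. Responses are reported ensemble, expression-matched against wild-type deciles with extremes trimmed, or within each variant's own surface deciles.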

[4] = test system: wild-type and variant SNAP-GIPR; assay: Single-concentration GIP cAMP response by HTRF in AD293 cells; details: Fig S3F, HTRF, mean;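 further: ratio to experiment-wide average response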
Method: as §1

[5] = test system: wild-type and variant SNAP-GIPR; assay: Constitutive and agonist-mediated internalization, reversible SNAP-tag labelling, INS-1 cells; parameters: key to Internalisation, GIP-only / Internalisation, Vehicle / Internalisation, +GIP: % internalization: residual fluorescence after Mesna vs pre-Mesna; details: Mean
How it was run: (§3)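 Percentage internalization calculated as specific SNAP fluorescence remaining after 10 min Mesna exposure, relative to pre-Mesna signal, imaged in TNE buffer (pH 8.6).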

[6] = test system: wild-type and variant SNAP-GIPR; assay: Constitutive and agonist-mediated internalization, reversible SNAP-tag labelling, AD293 cells; parameters: key to Internalisation, Vehicle / Internalisation, +GIP / Internalisation, GIP-only: % internalization: residual fluorescence after Mesna vs pre-Mesna; Surface expression: unit not given here; details: Mean
How it was run: as §3

[7] = test system: wild-type and variant SNAP-GIPR; assay: Surface SNAP-GIPR expression (SNAP-tag labelling) in INS-1 cells; details: Fig 4G; Mean
How it was run: as §2

B1: R136W (protein, UniProt P48546 22-466, looked up, variant R136W)
Gastric inhibitory …: RAETGSKGQTAGELYQRWERYRRECQETLAAAEPPSGLACNGSFDMYVCWDYAAPNATARASCPWYLPWHHHVAAGFVLRQCGSDGQWGLWRDHTQCENPEKNEAFLDQRLILEWLQVMYTVGYSLSLATLLLALLILSLFRRLHCTRNYIHINLFTSFMLRAAAILSRDRLLPRPGPYLGDQALALWNQALAACRTAQIVTQYCVGANYTWLLVEGVYLHSLLVLVGGSEEGHFRYYLLLGWGAPALFVIPWVIVRYLYENTQCWERNEVKAIWWIIRTPILMTILINFLIFIRILGILLSKLRTRQMRCRDYRLRLARSTLTLVPLLGVHEVVFAPVTEEQARGALRFAKLGFEIFLSSFQGFLVSVLYCFINKEVQSEIRRGWHHCRLRRSLGEEQRQLPERAFRALPSGSGPGEVPTSRGLSSGTLPGPGNEASRELESYC
B1 was tested, and the “INS-1 cAMP (100 nM)” value [1] was 1.164, the “AD293 Surface” value ([2]; column repeated, paired with cAMP 100 nM) was 1.539 and the “AD293 Surface” value ([2]; paired with cAMP 100 pM) was 1.539. The “Surface SNAP-GIPR expression” value ([2]; replicate 1) was 1.301, the “Surface SNAP-GIPR expression” value ([2]; replicate 2) was 1.896 and the “Surface SNAP-GIPR expression” value ([2]; replicate 3) was 1.558. For the same molecule, the “Surface SNAP-GIPR expression” value ([2]; replicate 4) was 1.426, the “Surface SNAP-GIPR expression” value ([2]; replicate 5) was 1.728 and the “Surface SNAP-GIPR expression” value ([2]; replicate 6) was 1.162. The “Surface SNAP-GIPR expression” value ([2]; replicate 7) was 1.369, the “Surface SNAP-GIPR expression” value ([2]; replicate 8) was 1.722 and the “Surface SNAP-GIPR expression” value ([2]; replicate 9) was 1.795. For the same molecule, the “Surface SNAP-GIPR expression” value ([2]; replicate 10) was 1.62, the “Surface SNAP-GIPR expression” value ([2]; replicate 11) was 1.44 and the “Surface SNAP-GIPR expression” value ([2]; replicate 12) was 1.625. For the same molecule, the “Surface SNAP-GIPR expression” value ([2]; replicate 13) was 1.681, the “Surface SNAP-GIPR expression” value ([2]; replicate 14) was 1.394 and the “Surface SNAP-GIPR expression” value ([2]; replicate 15) was 1.54. The “Surface SNAP-GIPR expression” value ([2]; replicate 16) was 1.63, the “Surface SNAP-GIPR expression” value ([2]; replicate 17) was 1.488 and the “Surface SNAP-GIPR expression” value ([2]; replicate 18) was 1.722. The “Surface SNAP-GIPR expression” value ([2]; replicate 19) was 2.073, the “Surface SNAP-GIPR expression” value ([2]; replicate 20) was 1.443 and the “Surface SNAP-GIPR expression” value ([2]; replicate 21) was 1.607. For the same molecule, the “Surface SNAP-GIPR expression” value ([2]; replicate 22) was 1.548, the “Surface SNAP-GIPR expression” value ([2]; replicate 23) was 1.562 and the “Surface SNAP-GIPR expression” value ([2]; replicate 24) was 1.636. The “Surface SNAP-GIPR expression” value ([2]; replicate 25) was 1.259, the “Surface SNAP-GIPR expression” value ([2]; replicate 26) was 1.57 and the “Surface SNAP-GIPR expression” value ([2]; replicate 27) was 1.295. The “Surface SNAP-GIPR expression” value ([2]; replicate 28) was 1.198, the “Surface SNAP-GIPR expression” value ([2]; replicate 29) was 1.582 and the “Surface SNAP-GIPR expression” value ([2]; replicate 30) was 1.517. For the same molecule, the “Surface SNAP-GIPR expression” value ([2]; replicate 31) was 1.447, the “Surface SNAP-GIPR expression” value ([2]; replicate 32) was 1.457 and the “Surface SNAP-GIPR expression” value ([2]; replicate 33) was 1.855. For the same molecule, the “Surface SNAP-GIPR expression” value ([2]; replicate 34) was 1.376, the “Surface SNAP-GIPR expression” value ([2]; replicate 35) was 1.615 and the “Surface SNAP-GIPR expression” value ([2]; replicate 36) was 1.418. For the same molecule, the “Surface SNAP-GIPR expression” value ([2]; replicate 37) was 1.346, the “Surface SNAP-GIPR expression” value ([2]; replicate 38) was 1.685 and the “Surface SNAP-GIPR expression” value ([2]; replicate 39) was 1.551. For the same molecule, the “Surface SNAP-GIPR expression” value ([2]; replicate 40) was 1.483, the “Surface SNAP-GIPR expression” value ([2]; replicate 41) was 1.492 and the “AD293 100 pM cADDis” value ([3]; AD293, 100 pM) was 19.5296. For the same molecule, the “AD293 100 nM cADDis” value ([3]; AD293, 100 nM) was 38.38, the “AD293 100 pM HTRF” value ([4]; AD293, 100 pM) was 0.0806 and the “AD293 100 nM HTRF” value ([4]; AD293, 100 nM) was 1.324. For the same molecule, the “+GIP internalisation (100 nM)” value ([5]; Fig 4G, GIP 100 nM) was 0.6838, the “GIP-specific internalisation (100 nM)” value ([5]; Fig 4G, GIP 100 nM) was 0.1408 and the “Constitutive internalisation (100 nM)” value ([5]; Fig 4G) was 0.543. For the same molecule, the “Internalisation, +GIP” value ([5]; Fig S4C, INS-1) was 46.5117, the “Internalisation, GIP-only” value ([5]; Fig S4C, INS-1) was 9.467 and the “Internalisation, Vehicle” value ([5]; Fig S4C, INS-1) was 37.045. The “+GIP internalisation (100 nM)” value ([6]; Fig 4E, GIP 100 nM) was 0.7747, the “GIP-specific internalisation (100 nM)” value ([6]; Fig 4E, GIP 100 nM) was 0.1529 and the “Constitutive internalisation (100 nM)” value ([6]; Fig 4E) was 0.6218. For the same molecule, the Surface expression ([6]; Fig 4E) was 1.49, the “Internalisation, +GIP” value ([6]; Fig S4C, AD293) was 52.0458 and the “Internalisation, GIP-only” value ([6]; Fig S4C, AD293) was 10.2879. For the same molecule, the “Internalisation, Vehicle” value ([6]; Fig S4C, AD293) was 41.7579 and the Surface expression [7] was 1.406.
